From US20190381086A1 (Scripps Research, published 2019)

B1: full-length human GlyRS (enzyme)
chain: MDGAGAEEVLAPLRLAVRQQGDLVRKLKEDKAPQVDVDKAVAELKARKRVLEAKELALQPKDDIVDRAKMEDTLKRRFFYDQAFAIYGGVSGLYDFGPVGCALKNNIIQTWRQHFIQEEQILEIDCTMLTPEPVLKTSGHVDKFADFMVKDVKNGECFRADHLLKAHLQKLMSDKKCSVEKKSEMESVLAQLDNYGQQELADLFVNYNVKSPITGNDLSPPVSFNLMFKTFIGPGGNMPGYLRPETAQGIFLNFKRLLEFNQGKLPFAAAQIGNSFRNEISPRSGLIRVREFTMAEIEHFVDPSEKDHPKFQNVADLHLYLYSAKAQVSGQSARKMRLGDAVEQGVINNTVLGYFIGRIYLYLTKVGISPDKLRFRQHMENEMAHYACDCWDAESKTSYGWIEIVGCADRSCYDLSCHARATKVPLVAEKPLKEPKTVNVVQFEPSKGAIGKAYKKDAKLVMEYLAICDECYITEMEMLLNEKGEFTIETEGKTFQLTKDMINVKRFQKTLYVEEVVPNVIEPSFGLGRIMYTVFEHTFHVREGDEQRTFFSFPAVVAPFKCSVLPLSQNQEFMPFVKELSEALTRHGVSHKVDDSSGSIGRRYARTDEIGVAFGVTIDFDTVNKTPHTATLRDRDSMRQIRAEISELPSIVQDLANGNITWADVEARYPLFEGQETGKKETIEE
notes: A tag-free preparation is described (N-terminal His-SUMO tag removed by Ulp1); the His-tagged preparation may have been used in some of those; also called full-length GlyRS; tag-free full-length GlyRS
B2: ΔWHEP GlyRS (enzyme)
chain: IVDRAKMEDTLKRRFFYDQAFAIYGGVSGLYDFGPVGCALKNNIIQTWRQHFIQEEQILEIDCTMLTPEPVLKTSGHVDKFADFMVKDVKNGECFRADHLLKAHLQKLMSDKKCSVEKKSEMESVLAQLDNYGQQELADLFVNYNVKSPITGNDLSPPVSFNLMFKTFIGPGGNMPGYLRPETAQGIFLNFKRLLEFNQGKLPFAAAQIGNSFRNEISPRSGLIRVREFTMAEIEHFVDPSEKDHPKFQNVADLHLYLYSAKAQVSGQSARKMRLGDAVEQGVINNTVLGYFIGRIYLYLTKVGISPDKLRFRQHMENEMAHYACDCWDAESKTSYGWIEIVGCADRSCYDLSCHARATKVPLVAEKPLKEPKTVNVVQFEPSKGAIGKAYKKDAKLVMEYLAICDECYITEMEMLLNEKGEFTIETEGKTFQLTKDMINVKRFQKTLYVEEVVPNVIEPSFGLGRIMYTVFEHTFHVREGDEQRTFFSFPAVVAPFKCSVLPLSQNQEFMPFVKELSEALTRHGVSHKVDDSSGSIGRRYARTDEIGVAFGVTIDFDTVNKTPHTATLRDRDSMRQIRAEISELPSIVQDLANGNITWADVEARYPLFEGQETGKKETIEE
notes: also called AWHEP GlyRS; core synthetase; not shown: His tag
B3: ABD (V541-E685) of GlyRS (enzyme)
chain: VREGDEQRTFFSFPAVVAPFKCSVLPLSQNQEFMPFVKELSEALTRHGVSHKVDDSSGSIGRRYARTDEIGVAFGVTIDFDTVNKTPHTATLRDRDSMRQIRAEISELPSIVQDLANGNITWADVEARYPLFEGQETGKKETIEE
notes: Cloned, expressed and purified in a similar way as the full-length GlyRS; also called ABD GlyRS; ABD domain alone
B4: GST-Ubc12 (enzyme)
chain: MIKLFSLKQQKKEEESAGGTKGSSKKASAAQLRIQKDINELNLPKTCDISFSDPDDLLNFKLVICPDEGFYKSGKFVFSFKVGQGYPHDPPKVKCETMVYHPNIDLEGNVCLNILREDWKPVLTINSIIYGLQYLFLEPNPEDPLNKEAAEVLQNNRRLFEQNVQRSMRGGYIGSTYFERCLK
modifications: N-terminal GST fusion, not carried in the letters
notes: Bait on glutathione beads in the GST pull-down; Band between 42 and 57 kDa in the input blot; also called GST-tagged Ubc12; not shown: GST tag and the linker to Ubc12
B5: Ubc12 (enzyme, UniProt P61081 1-183, looked up)
chain: B4 chain
notes: GST-tagged or untagged preparations are mentioned; also called Ubc12 alone; apo Ubc12
B6: APPBP1 in HEK293 cells (endogenous) (enzyme, UniProt Q13564 2-534, looked up)
chain: AQLGKLLKEQKYDRQLRLWGDHGQEALESAHVCLINATATGTEILKNLVLPGIGSFTIIDGNQVSGEDAGNNFFLQRSSIGKNRAEAAMEFLQELNSDVSGSFVEESPENLLDNDPSFFCRFTVVVATQLPESTSLRLADVLWNSQIPLLICRTYGLVGYMRIIIKEHPVIESHPDNALEDLRLDKPFPELREHFQSYDLDHMEKKDHSHTPWIVIIAKYLAQWYSETNGRIPKTYKEKEDFRDLIRQGILKNENGAPEDEENFEEAIKNVNTALNTTQIPSSIEDIFNDDRCINITKQTPSFWILARALKEFVAKEGQGNLPVRGTIPDMIADSGKYIKLQNVYREKAKKDAAAVGNHVAKLLQSIGQAPESISEKELKLLCSNSAFLRVVRCRSLAEEYGLDTINKDEIISSMDNPDNEIVLYLMLRAVDRFHKQQGRYPGVSNYQVEEDIGKLKSCLTGFLQEYGLSVMVKDDYVHEFCRYGAAEPHTIAAFLGGAAAQEVIKIITKQFVIFNNTYIYSGMSQTSATFQL
B7: His-tagged full-length human GlyRS (glycyl-tRNA synthetase) (enzyme)
chain: B1 chain
notes: also called His-tagged GlyRS; purified human GlyRS protein; not shown: His tag
B8: His-tagged human TrpRS (tryptophanyl-tRNA synthetase) (enzyme, UniProt P23381 1-471, looked up)
chain: MPNSEPASLLELFNSIATQGELVRSLKAGNASKDEIDSAVKMLVSLKMSYKAAAGEDYKADCPPGNPAPTSNHGPDATEAEEDFVDPWTVQTSSAKGIDYDKLIVRFGSSKIDKELINRIERATGQRPHHFLRRGIFFSHRDMNQVLDAYENKKPFYLYTGRGPSSEAMHVGHLIPFIFTKWLQDVFNVPLVIQMTDDEKYLWKDLTLDQAYSYAVENAKDIIACGFDINKTFIFSDLDYMGMSSGFYKNVVKIQKHVTFNQVKGIFGFTDSDCIGKISFPAIQAAPSFSNSFPQIFRDRTDIQCLIPCAIDQDPYFRMTRDVAPRIGYPKPALLHSTFFPALQGAQTKMSASDPNSSIFLTDTAKQIKTKVNKHAFSGGRDTIEEHRQFGGNCDVDVSFMYLTFFLEDDDKLEQIRKDYTSGAMLTGELKKALIEVLQPLIAEHQARRKEVTDEIVKEFMTPRKLSFDFQ
notes: not shown: His tag

Assays:
[1] = molecular target: T1, E1 for neddylation, APPBP1/UBA3 heterodimer (UniProt Q13564 1-534; Q8TBC4 22-463); test: biolayer interferometry, E1 (APPBP1/UBA3) immobilized, analyte 62.5-500 nM
T1 construct: GST-tagged or untagged preparations are mentioned; also called GST-APPBP1/UBA3; NAE; not shown: GST tag on APPBP1 (GST-APPBP1/UBA3)
T1 sequence (looked up) 1: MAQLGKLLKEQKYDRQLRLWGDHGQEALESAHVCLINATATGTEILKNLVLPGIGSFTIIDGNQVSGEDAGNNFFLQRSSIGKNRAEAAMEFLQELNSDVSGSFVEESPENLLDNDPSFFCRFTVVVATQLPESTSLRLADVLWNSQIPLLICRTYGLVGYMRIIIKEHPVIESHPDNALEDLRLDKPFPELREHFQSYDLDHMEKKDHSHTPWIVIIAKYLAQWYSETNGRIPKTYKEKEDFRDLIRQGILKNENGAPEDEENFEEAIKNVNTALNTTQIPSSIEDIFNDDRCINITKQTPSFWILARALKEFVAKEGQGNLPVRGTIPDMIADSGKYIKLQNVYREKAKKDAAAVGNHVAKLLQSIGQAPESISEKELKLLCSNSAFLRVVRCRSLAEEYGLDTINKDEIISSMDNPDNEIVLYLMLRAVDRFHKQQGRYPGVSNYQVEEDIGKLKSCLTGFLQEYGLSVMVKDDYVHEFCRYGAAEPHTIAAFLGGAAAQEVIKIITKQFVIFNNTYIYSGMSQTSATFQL
T1 sequence (looked up) 2: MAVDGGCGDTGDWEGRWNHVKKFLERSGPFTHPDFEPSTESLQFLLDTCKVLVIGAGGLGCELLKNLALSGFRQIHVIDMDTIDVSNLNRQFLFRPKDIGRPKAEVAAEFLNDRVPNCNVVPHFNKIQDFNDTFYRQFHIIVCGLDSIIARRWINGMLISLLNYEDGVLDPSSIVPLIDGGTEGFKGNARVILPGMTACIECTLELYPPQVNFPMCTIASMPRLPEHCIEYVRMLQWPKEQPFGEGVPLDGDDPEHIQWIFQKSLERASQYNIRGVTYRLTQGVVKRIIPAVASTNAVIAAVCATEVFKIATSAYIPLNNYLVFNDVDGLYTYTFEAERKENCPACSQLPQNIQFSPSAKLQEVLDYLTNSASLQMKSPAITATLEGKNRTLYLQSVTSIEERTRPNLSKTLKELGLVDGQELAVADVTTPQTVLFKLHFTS

GST-APPBP1 = molecular target: T2, GST-APPBP1 (UniProt Q13564 1-534, limits assumed); test: biolayer interferometry, APPBP1 immobilized, ABD GlyRS 0.58-4.6 µM
T2 construct: Fractions of a Superdex 200 run of GST-APPBP1/UBA3 that held only GST-APPBP1; also called APPBP1 subunit alone; E1 regulatory subunit APPBP1; not shown: GST tag
T2 sequence (looked up): T1 sequence (looked up) 1

ABD (V541-E685) of GlyRS = molecular target: B3; test: GST pull-down on glutathione beads, blot anti-GlyRS
[2] = molecular target: T3, N-terminal GST-tagged GlyRS (human, UniProt P41250 55-739); test: biolayer interferometry (Octet), GlyRS immobilized, 30°C
T3 construct: also called GST-GlyRS; immobilized GlyRS; not shown: N-terminal GST tag from a modified pET28a vector
T3 sequence: B1 chain

[3] = molecular target: T4, GlyRS in HEK293 cells (endogenous) (human, UniProt P41250 55-739, limits assumed); test: co-immunoprecipitation, HEK293 cells
T4 sequence: B1 chain

ubiquitin = molecular target: T5, ubiquitin (UniProt P0CG48 1-76); test: His-tag pull-down
T5 construct: Bought protein

B1
Kd [1]: 159 nM

B2
Kd [1]: 177 nM

B3
Kd (GST-APPBP1): 144 nM
Kd [1]: 187 nM

B4
binding result (ABD (V541-E685) of GlyRS): no binding

B5
Kd [2]: 488 nM

B6
binding result [3]: binds

B7
binding result (ubiquitin): no binding

B8
binding result (ubiquitin): no binding
